Where “and” joins values, the source holds several entries; their conditions need not be identical. Equal entries are not always repeated.
Tests used:
Assay in all cases: ITC
HSPA1A F592S = HSPA1A F592S (human, UniProt P0DMV8 1-641, F592S)
HSPA1A wild-type (WT) = HSPA1A wild-type (WT) (human, UniProt P0DMV8 1-641)
HSPA1A S16P = HSPA1A S16P (human, UniProt P0DMV8 1-641, S16P)
HSPA1A R36C = HSPA1A R36C (human, UniProt P0DMV8 1-641, R36C)
HSPA1A I74T = HSPA1A I74T (human, UniProt P0DMV8 1-641, I74T)
HSPA1A I74T, sequence (P0DMV8 whole entry I74T): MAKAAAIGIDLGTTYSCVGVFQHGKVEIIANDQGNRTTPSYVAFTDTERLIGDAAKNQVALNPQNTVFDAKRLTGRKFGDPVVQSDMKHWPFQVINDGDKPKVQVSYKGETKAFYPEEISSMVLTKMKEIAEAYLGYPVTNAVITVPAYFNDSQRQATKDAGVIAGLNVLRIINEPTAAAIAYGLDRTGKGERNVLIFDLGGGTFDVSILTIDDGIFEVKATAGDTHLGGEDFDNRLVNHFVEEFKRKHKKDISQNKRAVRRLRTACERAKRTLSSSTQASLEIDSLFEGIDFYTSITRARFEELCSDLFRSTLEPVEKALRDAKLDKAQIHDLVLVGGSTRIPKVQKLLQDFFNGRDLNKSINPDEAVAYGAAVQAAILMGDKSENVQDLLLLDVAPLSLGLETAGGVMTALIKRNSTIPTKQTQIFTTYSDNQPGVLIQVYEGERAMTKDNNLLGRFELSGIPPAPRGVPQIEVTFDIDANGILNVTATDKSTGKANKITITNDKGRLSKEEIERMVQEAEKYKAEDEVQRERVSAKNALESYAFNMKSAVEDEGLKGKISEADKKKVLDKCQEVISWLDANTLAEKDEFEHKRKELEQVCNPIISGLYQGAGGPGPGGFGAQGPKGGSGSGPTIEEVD

HSPA1A S16Y = HSPA1A S16Y (human, UniProt P0DMV8 1-641, S16Y)
HSPA1A S16Y, sequence (P0DMV8 whole entry S16Y): as the sequence (P0DMV8 whole entry I74T) above, with S16Y, T74I counted along it

HSPA1A I480N = HSPA1A I480N (human, UniProt P0DMV8 1-641, I480N)
HSPA1A I480N, sequence (P0DMV8 whole entry I480N): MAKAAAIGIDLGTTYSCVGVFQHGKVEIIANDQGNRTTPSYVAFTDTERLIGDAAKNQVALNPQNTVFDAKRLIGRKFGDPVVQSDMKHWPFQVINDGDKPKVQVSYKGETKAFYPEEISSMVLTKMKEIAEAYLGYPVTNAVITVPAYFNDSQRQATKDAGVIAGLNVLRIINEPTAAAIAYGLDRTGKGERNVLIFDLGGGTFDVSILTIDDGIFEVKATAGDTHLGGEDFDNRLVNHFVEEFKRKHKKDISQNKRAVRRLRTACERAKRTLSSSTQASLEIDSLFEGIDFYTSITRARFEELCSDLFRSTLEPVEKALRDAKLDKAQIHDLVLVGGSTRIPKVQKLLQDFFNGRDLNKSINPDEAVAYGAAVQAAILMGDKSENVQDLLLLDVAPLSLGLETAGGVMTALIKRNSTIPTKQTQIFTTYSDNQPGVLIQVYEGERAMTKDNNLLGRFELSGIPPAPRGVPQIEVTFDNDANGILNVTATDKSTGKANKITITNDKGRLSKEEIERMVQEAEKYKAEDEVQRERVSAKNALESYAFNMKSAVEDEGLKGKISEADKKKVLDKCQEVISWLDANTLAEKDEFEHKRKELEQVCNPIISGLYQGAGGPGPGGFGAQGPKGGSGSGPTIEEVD

HSPA1A K71A = HSPA1A K71A (human, UniProt P0DMV8 1-641, K71A)
HSPA1A K71A, sequence (P0DMV8 whole entry K71A): as the sequence (P0DMV8 whole entry I74T) above, with K71A, T74I counted along it

HSPA1A S16P, sequence (P0DMV8 whole entry S16P): as the sequence (P0DMV8 whole entry I74T) above, with S16P, T74I counted along it
HSPA1A R36C, sequence (P0DMV8 whole entry R36C): as the sequence (P0DMV8 whole entry I74T) above, with R36C, T74I counted along it
HSPA1A F592S, sequence (P0DMV8 whole entry F592S): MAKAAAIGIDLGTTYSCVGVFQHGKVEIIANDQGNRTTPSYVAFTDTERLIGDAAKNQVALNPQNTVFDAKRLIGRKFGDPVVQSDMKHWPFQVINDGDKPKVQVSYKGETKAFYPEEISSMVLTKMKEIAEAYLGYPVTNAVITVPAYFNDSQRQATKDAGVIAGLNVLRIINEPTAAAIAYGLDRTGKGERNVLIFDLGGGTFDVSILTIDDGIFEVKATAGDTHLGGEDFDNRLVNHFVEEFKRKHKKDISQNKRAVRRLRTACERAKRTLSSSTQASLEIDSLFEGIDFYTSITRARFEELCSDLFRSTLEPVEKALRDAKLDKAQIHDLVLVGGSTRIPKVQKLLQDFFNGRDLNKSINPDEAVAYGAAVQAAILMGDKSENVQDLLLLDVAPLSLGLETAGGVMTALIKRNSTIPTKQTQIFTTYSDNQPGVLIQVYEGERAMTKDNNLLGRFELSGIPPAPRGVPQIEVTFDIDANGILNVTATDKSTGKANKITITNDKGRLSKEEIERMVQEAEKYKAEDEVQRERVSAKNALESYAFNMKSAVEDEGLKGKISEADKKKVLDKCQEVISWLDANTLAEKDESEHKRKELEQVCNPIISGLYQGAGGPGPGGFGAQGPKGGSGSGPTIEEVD
HSPA1A wild-type (WT), sequence (P0DMV8 whole entry): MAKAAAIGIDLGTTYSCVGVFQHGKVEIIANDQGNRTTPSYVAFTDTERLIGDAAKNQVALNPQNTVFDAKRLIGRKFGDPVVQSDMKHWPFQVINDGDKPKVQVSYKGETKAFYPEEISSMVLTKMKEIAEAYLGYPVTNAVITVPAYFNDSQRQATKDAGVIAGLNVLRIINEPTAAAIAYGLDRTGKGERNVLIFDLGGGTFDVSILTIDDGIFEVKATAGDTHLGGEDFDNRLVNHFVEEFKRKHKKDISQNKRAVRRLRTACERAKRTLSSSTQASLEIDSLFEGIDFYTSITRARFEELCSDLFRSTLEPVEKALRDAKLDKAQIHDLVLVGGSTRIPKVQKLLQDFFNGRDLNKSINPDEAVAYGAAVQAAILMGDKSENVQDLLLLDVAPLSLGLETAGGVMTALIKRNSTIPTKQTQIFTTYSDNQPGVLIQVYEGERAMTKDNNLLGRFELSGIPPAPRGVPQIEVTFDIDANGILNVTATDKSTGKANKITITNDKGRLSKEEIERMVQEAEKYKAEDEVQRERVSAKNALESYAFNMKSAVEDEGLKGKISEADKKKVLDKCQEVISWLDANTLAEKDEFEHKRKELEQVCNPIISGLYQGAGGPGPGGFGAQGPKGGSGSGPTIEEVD

## NIVAKKK [protein substrate (peptide NIVAKKK)]
HSPA1A F592S
  Kd: 559 nM and 500 nM and 374 nM
  dH: -3.84 kcal/mol and -4.67 kcal/mol and -3.66 kcal/mol
  stoichiometry N: 1.07 and 1.04 and 1.06
HSPA1A wild-type (WT)
  Kd: 335 nM and 529 nM and 364 nM
  dH: -6.18 kcal/mol and -4.72 kcal/mol and -4.79 kcal/mol
  stoichiometry N: 0.993 and 1 and 1.02
HSPA1A S16P
  Kd: 738 nM and 679 nM and 599 nM
  dH: -2.98 kcal/mol and -3.21 kcal/mol and -3.22 kcal/mol
  stoichiometry N: 0.991 and 1 and 1.03
HSPA1A R36C
  Kd: 576 nM and 472 nM and 509 nM
  dH: -3.75 kcal/mol and -3.81 kcal/mol and -3.88 kcal/mol
  stoichiometry N: 1.03 and 1 and 0.984
HSPA1A I74T
  Kd: 999 nM and 995 nM and 935 nM
  dH: -4.52 kcal/mol and -4.7 kcal/mol and -4.85 kcal/mol
  stoichiometry N: 0.998 and 0.985 and 1.01
HSPA1A S16Y
  Kd: 335 nM and 331 nM and 315 nM
  dH: -10.2 kcal/mol and -9.96 kcal/mol and -9.74 kcal/mol
  stoichiometry N: 1.04 and 1.02 and 1.01
HSPA1A I480N
  Kd: 710 nM and 661 nM and 697 nM
  dH: -4.43 kcal/mol and -5.06 kcal/mol and -4.72 kcal/mol
  stoichiometry N: 1.02 (2×) and 1.01
HSPA1A K71A
  Kd: 528 nM and 615 nM and 635 nM
  dH: -2.77 kcal/mol and -3.32 kcal/mol and -2.86 kcal/mol
  stoichiometry N: 0.982 and 1 and 0.989
